Experimental data as given in article PMC3999280.

Experiments:
[1] = biological target: LdtRLas (LdtR from 'Candidatus Liberibacter asiaticus', […]_01180) ('Candidatus Liberibacter asiaticus' str. psy62); experiment: SEC
[2] = biological target: LdtRLas ('Candidatus Liberibacter asiaticus') (UniProt A0ABN4AZS1); experiment: EMSA; conditions: EMSA: 50 mM Tris-HCl pH 7.2, 150 mM KCl, 10 mM MgCl2, 0.01% Triton X-100, 12.5 ng/uL each poly(dI-dC) and poly(dA-dT), 1 ng probe in 20 uL, 20 min at 37 C; 6% …

Substance: LdtRLas (LdtR from 'Candidatus Liberibacter asiaticus', […]_01180) (natural protein)
- stoichiometry N [1]: 2

Substance: PldtP (PldtPLas)
- K half [2]: 100 nM
